Results as given in the nanobody polyreactivity screen of Harvey et al. (2022).

test: yeast display, Sf9 membrane polyspecificity reagent, FACS + sequencing; frameworks hold sequencing errors
Outline: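 A nanobody's polyreactivity label depends on the gate it was sorted from. Yeast display cells were stained with 10% biotinylated, detergent-solubilized Sf9 membrane reagent for 1 hour at 4 °C, enriched on streptavidin microbeads and sorted by FACS. The low and high (top ~1%) gates were set on anti-HA fluorescence for expression and streptavidin fluorescence for reagent binding.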

Sequence | polyreactivity (PSR sort gate)
QVQLVESGGGLVQAGGSLRLSSAASGSIFLLYAKGWDRQAPGKERELVAAISRSGDSTHYADSVKGRFTISRDNAKNTVYLQMNSLQPEDTAVYYCAADGYDPYGGLYAYWGHGTQVTVSS | low polyreactivity
QVQLVESGGGLVQAGGSLRLSSAASGSIFPLYAMGWYRQAPGKERELVATINRRTGSTYADSVKGRFTISRDNAKNTVYLQMKSLKPEYTAVYYCNAADNYVLFYKTRIYNYWGQGTQVTVSS | high polyreactivity
QVQLVESGGGLVQAGGSLRLSSAASGSIFPRYVMGCYRQAPGKERELVPAISRGGSTNYADSVKGRFTISRDNAKNTVYLQMNSLKPEDTAVYYCDAVLYTRYNYWGQGTQVTVSS | high polyreactivity
QVQLVESGGGLVQAGGSLRLSSAASGSIFSAYAMGWYRQAPGKERELVATISRSGASTYYADSVKGRFTISRDNAKNTVYLQMNSLKPEDTAVYYCAARYYSPAYRLGGVDYWGQGTQVTVSS | high polyreactivity
QVQLVESGGGLVQAGGSLRLSSAASGSIFWPNTMGWYRPAPGKERELVAGISFGGGSTYYADSVKGRFTISRDNAKNTVYLQMNRLKPEDTAVYYCNGDDPGYAGPWYWFKYDYWGQGTQVTVSS | low polyreactivity
QVQLVESGGGLVQAGGSLRLSSAASGSIFYNNAMGWYRQAPGKERELVAAISGSGDSTYYADSVKGRFTISRDNAKNTVYLQMNSLIPDDTAVYYCNATPYVLWWSDMDYWGQGTQVTVSS | high polyreactivity
QVQLVESGGGLVQAGGSLRLSSAASGSILGDYGMGWYRQAPGKERELVAAITWNGDSTYYADSVKGRFTISRDNAKNTVYLQMNSLKPEDTAVYYCAADLQDYKYYPWYGYWGQGTQVTVSS | low polyreactivity
QVQLVESGGGLVQAGGSLRLSSAASGSISADYVMGWYRQAPGKERELVAAISVSAGTTYYADSVKGRFTISRDNAKNTVYLQMNSLKPEDTAVYYCAATDSYYWLYYYGYSPGNDYWGQGTQVTVSS | low polyreactivity
QVQLVESGGGLVQAGGSLRLSSAASGSPFIYYVMGWYRQAPGKERELVAAITRSGSTNYADSVKGRFTISRDNAKNTVYLQMNSLKPEDTAVYYCAAERALSRYGYWGHGTQVTVSS | low polyreactivity
QVQLVESGGGLVQAGGSLRLSSAASGSTFAFYDMGWYRQAPGKERELVAGISSSGSTYYADSVKGRFTISRDNAKNTVYLQMNSLKPEDTAVYYCAAVLSVRVYGYDYWGQGTQVTVSS | low polyreactivity
QVQLVESGGGLVQAGGSLRLSSAASGSTFDSNAMGWYRQAPGKERELVAAIDYSSDSTYYADSVKGRFTISRDNAKNTVYLQMNSLKPEDTAVYYCAAVAYIFCARYGYNYWGQGTQVTVSS | low polyreactivity
QVQLVESGGGLVQAGGSLRLSSAASGSTFGSYTMGWYRQAPGKERELVAAINWSGGNTYYADSVKGRFTISRDNAKNTVYLQMNSLKPEDPAVYYCAAAFYIYGVEGDYWGQGTQVTVSS | low polyreactivity
QVQLVESGGGLVQAGGSLRLSSAASGSTFISYAMGRYSQAPGQDRELVAAISSGGGRTSYADSVKGRLTISRDHAKNTVYLQMNSLKPEDTAVYYCNKTPHFPRPGFNYWGQGTHVTVSS | low polyreactivity
QVQLVESGGGLVQAGGSLRLSSAASGSTFTAYAMGWYRQAPGTERELVAAISRSRGRTYYADSVKGRFTISRDNAKYTVYLEMISLKPEDTAVLYCNARGGSDGDYWGQGTQVTVSS | high polyreactivity
QVQLVESGGGLVQAGGSLRLSSAASGSTFVYNYMGWYRQAPGKERELVAAIDSGGSTYYADSVKGRFTISRDNAKNTVYLQMNSLKPEDTAVYYCAASSDSYFGYHYYYWGQGTQVTVSS | low polyreactivity
QVQLVESGGGLVQAGGSLRLSSAASGSTFYKYAMGWNRQTPGKERELVAPITGNSGSTYYADSVKGRFTISRDNAKNTVYLQMNSLKPEDTAVYYCAAARPRVWAFNYWGQGTQVTVSS | low polyreactivity
QVQLVESGGGLVQAGGSLRLSSAASGSTFYYNTMGWSRQAPGKERELVAAISSSGGTTYYADSVKGRFTISRDNAKNTVYLQMNSLKPEDTAVYYCNVATIWYSYARGYGYWGQGTQVTVSS | high polyreactivity
QVQLVESGGGLVQAGGSLRLSSAASGSTIGYYAMRWYRQAPGKERELVAAISWSGGSTYYADSVKGRFTISRDNAKNTVYLQMNSLKPEDTAVYYCAADTYPDYYLVEYYYWGQGTQVTVSS | low polyreactivity
QVQLVESGGGLVQAGGSLRLSSAASGSTLRRYAMGWYRQAPGKERELVAAISGSGDSTYYADSVKGRFTISRDNAKNTVYLQMNSLKPEDTAVYYCNAVYAFNGYDYWGQGTQVTVSS | low polyreactivity
QVQLVESGGGLVQAGGSLRLSSAASGSTSYYYVMGWYRQAPGKERELVAAISNGDTTNYADSVKGRITITRDNEKNTVYLQMNSLKPEVTAVDYCAAVYYRSFHDYGYWGQGTQVTVSS | low polyreactivity
QVQLVESGGGLVQAGGSLRLSSAASGTIFRSYSMGWSRQAPGKERELVASITWRGGRTYYADSVKGRFTISRDNAKNTVYLQMNSLKPEDTAVDFCAVLWTPAGGYYFRYDYWGQGTQVTVSS | low polyreactivity

Sequence | polyreactivity (PSR sort gate)
QVQLVESGGGLVQAGGSLRLSSAASGYIFDWNAMGWYRQAPGKERELVAAISSGGRTNYADSVKGRFTISRDNAKNTVYLQMNSLKPEDTAVYYCAAVYTDPYVEYDYWGQGTQVTVSS | low polyreactivity
QVQLVESGGGLVQAGGSLRLSSAAYGRTFRPYAMGWYRQAPGKERELVAAIDSSGTSTYYADSVKGRFTISLDNAKNTVYLQMNSLKPEDTAVYYCAAGSDPTGRRYDYWGQGTQVTVSS | low polyreactivity
QVQLVESGGGLVQAGGSLRLSSAGSGSPFRSNAMGWYRQAPGKERELVAAISQRGGSTYYADSVKGRFTISRDNAKNPVYLQMNSLKAVDTAVYYCAKVSKRVGFPTAMNYWGQGTQVTVSS | high polyreactivity
QVQLVESGGGLVQAGGSLRLSSASSGFIFRGNAMVWSRQAPGKERELVAAISWSGGNTYYADSVKGRFTISRDYAKNTVYLQMNSMIPEDTAVYYCNGVKAYYRWFLPRYQYNFWGQGTQVTVSS | high polyreactivity
QVQLVESGGGLVQAGGSLRLSSASSGFTFTFYAMGWYRQEPGKERELVAAISKGGGSTSYADSVKGRFTISRDNAKNTVYLQMNCLKPEETAVYYCAARYYYSRSRLYYYWGQGTQVTVSS | high polyreactivity
QVQLVESGGGLVQAGGSLRLSSASSGSIFESNALGWYRQAPGKEREFVAAIDQNDGSTNYADSVKGRFTISRDNAKNTVYLQMYSLNPEDTAVYYCAASPGTASYDYWGQGTQVTVSS | low polyreactivity
QVQLVESGGGLVQAGGSLRLSSDASGRIFRYYSMGWYRQAPGKERELVAAITRGGYTNYADSVKGRFTISRDNAKITVYFQMNSLKQEDTAVYYCATRQSWYPRWMDYWGQGTQVTVSS | high polyreactivity
QVQLVESGGGLVQAGGSLRLSSPASGSTYVVYAMGWYRPAPGKERELVADITRSGGSTYYADSVKGRFTISRDNAKNTVYLQMNSLKPEDSAVYYCAAVRRNGPYKYYYWGQGTQVTVSS | high polyreactivity
QVQLVESGGGLVQAGGSLRLSSSASGGTFWDYAMGCYRQAPGKERELVAAINWSGDSTYADSVKGRFTISRDNAKNTCYLQMTSLKPEDTAVYYCNADVWYYRMDYWGQGTQVTVSS | low polyreactivity
QVQLVESGGGLVQAGGSLRLSWAAAGFIFYYNAMGRYRQAPGKERELVAAIDESGGSTYYADSVKGRFTISRDNATNTVYLQLNSLKPEDSAVYYCDTDDTWSISYGWYWFTYEYWGQGTQVTVSS | low polyreactivity
QVQLVESGGGLVQAGGSLRLSWAASGFTFYRYAMGWYRQAPGKERELVAAITRSGSRTYYADSVKGRFTISRDNAKNTVYVQMNSLKPEDTAVYYCNTDGGDHPTARYGYWGQGTQVTVSS | high polyreactivity
QVQLVESGGGLVQAGGSLRLSWAASGIILQEYTMGWYRPAHWKERELVAAISVRGGSTYYADSVKGRFTISRDHAKNTVYLQMNSLKPEDTAVYYCAAAYYRRPPGFNYWGQGTEVTVSS | high polyreactivity
QVQLVESGGGLVQAGGSLRLSWAASGRTIVYYAMGWYSQAPGKEREFVAAISRSGGRTSYADSVKGRFTISRDNAKNTVYLHMNILKPDDTAVYYCAAEKRTQPTSREYYWGKGTQVTVSS | high polyreactivity
QVQLVESGGGLVQAGGSLRLSWAASGSIFFLYAMGWYRQAPAKERELVAAITSIGGSTYADSVKGRFTISRDNAKNTVYLQMNSLKPEDTAVYYCNTDEYPLTVQVQYYYWGQGTEVTVSS | low polyreactivity
QVQLVESGGGLVQAGGSLRLSWAASGSIFGWYGMGWYSPAPGKERELVAAITRGGSTYYADSVKGRFTISRDNAKNTVYLQMNSLKPEDTAGYYCAKRSGQQYGGYGYWGQGTQVTVSS | low polyreactivity
QVQLVESGGGLVQAGGSLRLSWAASGSNFDAYAMGWYRPAPGKERELVAAINARGGSTYYADSVKGRFTISRDNAKNTVYLQMNSLKPEETAVYDCNRLSRVRRYIYDYWGQGTQVTVSS | high polyreactivity
QVQLVESGGGLVQAGGSLRLSWAAYGRIFLTNAMGWYRQAPGKERELVAAITSGGSTYYADSVKGRFTISRDNAKNTVYLQMNSLKPEDTAVYYCKADTDRYWPYEYDYWGQGTQVTVSS | low polyreactivity
QVQLVESGGGLVQAGGSLRLSWAAYGRTILWYTMGWYRQAPGKERDLVADISSSGGTTFYADSVKGRFTISRDNAKNTVYLQMNSLKAVDNAVYYCKRNARKLRTVHSSVVGLDYWGQGTQVTVSS | low polyreactivity
QVQLVESGGGLVQAGGSLRLTCAASALTFVWYAMGWYRQATGKERELVAAIRGGGSTYYADSVKGRFTISRDNAKNTVYLQMNRLIPEDTAVYYCAAQRSPYYTFYYWGQGTQVTVSS | high polyreactivity
QVQLVESGGGLVQAGGSLRLTCAASARTFFGYAMGWYRQAHGKARELVARIRWSTTYYADSVKGRFTISRDNAKNTVYLQMNSLKPEDTAVYYCNAVYYYVGYRYDYWGQGTQVTVSS | high polyreactivity
